The record followed here is patent US20090285799A1 (CSL, published 2009).

Substitutions are numbered along the chain they refer to.

B1: 8B4 (Fab) (Fab, V domains shown)
VH: EVQVLESGGGLVQPGGSLRLSCAASGFTFSNYAMTWVRQAPGKGLEWVSTISGRGYSIYYADSVKGRFTISRDNSKNTVYLQMNSLRAEDTAVYYCAKEEGHWYFDVWGRGTLVTVSS
VL: EIVLTQSPDFQSVTPKEKVTITCRASQSIGSSLHWYQQKPDQSPKLLIKYASQSFSGVPSRFSGSGSGTDFTLTINSLEAEDAAAYYCHQSSSLPYTFGQGTKLEIK
notes: Fab format from vector pFab3d
B2: 8B4-18C (Fab) (Fab, V domains shown)
VH: B1 VH
VL: B1 VL with H89M, Q90N, S92L, S93G
notes: Fab format; only CDR3s were mutated
B3: 8B4-36 (Fab) (Fab, V domains shown)
VH: B1 VH
VL: B1 VL with H89V, Q90S, S92W, S93G
notes: as for B2
B4: 8B4-82 (Fab) (Fab, V domains shown)
VH: B1 VH
VL: B1 VL with H89A, Q90S, S92R, S93G
notes: as for B2
B5: 8B4-78M (Fab) (Fab, V domains shown)
VH: B1 VH
VL: B1 VL with H89M, Q90S, S92M, S93G
notes: as for B2
B6: 8B4-21C (Fab) (Fab, V domains shown)
VH: B1 VH
VL: B1 VL with H89K, Q90S, S92A, S93G
notes: as for B2
B7: 8B4-74C (Fab) (Fab, V domains shown)
VH: B1 VH
VL: B1 VL with H89M, Q90S, S92L, S93G
notes: as for B2
B8: 8B4-80C (Fab) (Fab, V domains shown)
VH: B1 VH
VL: B1 VL with H89M, Q90S, S92W, S93G
notes: as for B2
B9: 8B4 (antibody, V domains shown)
VH: B1 VH
VL: B1 VL
notes: Human monoclonal antibody purified from a hybridoma of HuMAb transgenic mice; also called PTA-6934
B10: 6C11 (antibody, V domains shown)
VH: B1 VH with S30N, M34L, Y104F
VL: B1 VL
notes: Human monoclonal antibody purified from a hybridoma of HuMAb transgenic mice; also called PTA-6930
B11: 2B6 (antibody, V domains shown)
VH: QVQLVESGGGVVQPGRSLRLSCAASGFTFSYYGMHWVRQAPGKGLEWVAFIWYDGSNKYYEDSVKGRFTISRDNSKNTLYLQMNSLRAEDTAVYYCARVAAAGAVEYFQHWGQGTLVTVSS
VL: AIQLTQSPSSLSASVGDRVTITCRASQVISSVLAWYQQKSGKGPKLLIYDASSLESGVPSRFSGSGSGTDFTLTISSLQPEDFATYYCQQFNSYPLTFGGGTKVEIK
notes: Human monoclonal antibody purified from a hybridoma of HuMAb transgenic mice; also called PTA-6932; 2136
B12: 8B4-IgG4 (antibody, V domains shown)
VH: B1 VH
VL: B1 VL
notes: Recombinant full-length antibody of subclass IgG4 with kappa light chain (Lonza pCONGAMMA4/pCONKAPPA vectors), made in 293 cells
B13: 8B4-82 (eotaxin assay) (antibody, V domains shown)
VH: B1 VH
VL: B1 VL with H89A, Q90S, S92R, S93G
B14: 8B4-74C (eotaxin assay) (antibody, V domains shown)
VH: B1 VH
VL: B1 VL with H89M, Q90S, S92L, S93G
B15: 8B4-21C (eotaxin assay) (antibody, V domains shown)
VH: B1 VH
VL: B1 VL with H89K, Q90S, S92A, S93G
B16: 8B4-78M (optimized antibody, eotaxin assay) (antibody, V domains shown)
VH: B1 VH
VL: B1 VL with H89M, Q90S, S92M, S93G
B17: 8B4-36 (eotaxin assay) (antibody, V domains shown)
VH: B1 VH
VL: B1 VL with H89V, Q90S, S92W, S93G
B18: 8B4-78M-IgG4 (antibody, V domains shown)
VH: B1 VH
VL: B1 VL with H89M, Q90S, S92M, S93G
notes: Full-length IgG4, kappa
B19: 8B4-18C-IgG4 (antibody, V domains shown)
VH: B1 VH
VL: B1 VL with H89M, Q90N, S92L, S93G
notes: Full-length IgG4, kappa

One test addresses T1, hIL-13Rα1.ECR (N-terminal FLAG-tagged fusion protein of the extracellular region of human IL-13Rα1) (human, UniProt P78552 29-343).
T1 construct: also called human IL-13Rα1.ECR; hIL-13Rα1 extracellular domain
T1 sequence: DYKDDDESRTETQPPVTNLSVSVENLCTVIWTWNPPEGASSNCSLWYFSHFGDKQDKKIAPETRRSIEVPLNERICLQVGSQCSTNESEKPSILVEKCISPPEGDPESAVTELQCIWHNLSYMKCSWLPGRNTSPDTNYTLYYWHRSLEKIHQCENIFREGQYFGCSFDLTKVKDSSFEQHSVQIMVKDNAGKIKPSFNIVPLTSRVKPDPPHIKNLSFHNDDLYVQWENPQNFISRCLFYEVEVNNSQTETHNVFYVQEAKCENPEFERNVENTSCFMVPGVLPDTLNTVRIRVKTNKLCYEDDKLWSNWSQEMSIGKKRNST
Kind of test: BIACORE SPR, chip-bound hIL-13Rα1 extracellular domain, Fab format.
The molecule B1 gave a Kd of 2.15 nM.
The same measure, in the same setting: under B2 stands 0.085 nM; under B3, 0.085 nM.
B4 displayed a Kd of 0.073 nM.
The same measure, in the same setting: under B5 stands 0.049 nM; under B6, 0.17 nM.
The molecule B7 came in with a Kd of 0.045 nM.
In turn, B8 registered a Kd of 0.25 nM.

The target in another test is T2, IL-13Rα1 on whole blood cells or PBMCs (TARC release assay).
T2 sequence (P78552 whole entry, species assumed, looked up): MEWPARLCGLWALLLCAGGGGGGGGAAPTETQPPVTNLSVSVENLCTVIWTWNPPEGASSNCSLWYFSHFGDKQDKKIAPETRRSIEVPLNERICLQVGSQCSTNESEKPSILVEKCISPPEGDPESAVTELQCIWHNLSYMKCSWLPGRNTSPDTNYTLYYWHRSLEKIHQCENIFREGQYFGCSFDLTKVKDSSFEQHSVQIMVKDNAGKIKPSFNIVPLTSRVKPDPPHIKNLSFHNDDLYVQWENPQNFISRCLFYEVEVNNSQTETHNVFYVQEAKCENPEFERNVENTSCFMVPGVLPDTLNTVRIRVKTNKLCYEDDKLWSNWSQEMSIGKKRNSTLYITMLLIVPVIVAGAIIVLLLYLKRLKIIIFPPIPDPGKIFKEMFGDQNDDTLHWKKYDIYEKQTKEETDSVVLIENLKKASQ
The experiment in a line: cell-based or functional assay.
For the molecule B9, the “IL-13-stimulated TARC release in whole blood or PBMCs (IC50)” value was ~2.6 µg/mL.
For B10, the “IL-13-stimulated TARC release in whole blood or PBMCs (IC50)” value amounted to 2.5 µg/mL.

A further test concerns the target T3, human IL-13Rα1 on normal human dermal fibroblast (NHDF) cells (human, UniProt P78552 27-427).
T3 sequence: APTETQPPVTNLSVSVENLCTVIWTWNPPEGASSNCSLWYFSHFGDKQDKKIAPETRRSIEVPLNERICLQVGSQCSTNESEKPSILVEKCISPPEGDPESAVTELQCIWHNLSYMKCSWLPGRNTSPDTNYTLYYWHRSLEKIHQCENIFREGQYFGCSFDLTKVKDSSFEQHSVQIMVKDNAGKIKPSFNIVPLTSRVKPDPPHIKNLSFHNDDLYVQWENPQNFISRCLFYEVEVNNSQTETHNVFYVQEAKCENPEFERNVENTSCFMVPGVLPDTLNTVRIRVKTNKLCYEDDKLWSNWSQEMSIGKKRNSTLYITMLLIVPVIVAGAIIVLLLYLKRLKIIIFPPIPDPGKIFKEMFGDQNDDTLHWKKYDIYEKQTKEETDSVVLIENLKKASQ
Kind of test: cell-based or functional assay.
B11: the “NHDF IL-13-induced STAT6 phosphorylation (EC50)” value is 7 µg/mL.
Take B12: the “inhibition of eotaxin release from NHDF cells upon stimulation with IL-13 (IC50)” value (shortened to “inhibition of eotaxin release”) was ~1 µg/mL.
The same measure, in the same setting: under B13 stands 1.31 µg/mL.
Consider B9, for which the “NHDF IL-13-induced STAT6 phosphorylation (EC50)” value is ~2.9 µg/mL.
As to B14, the “inhibition of eotaxin release” value was determined as 0.1 µg/mL.
Turning to B15, the “inhibition of eotaxin release” value was found to be 0.75 µg/mL.
Turning to B16, the “inhibition of eotaxin release” value is ~0.1 µg/mL.
For the molecule B17, the “inhibition of eotaxin release” value came out at 0.17 µg/mL.
As to B10, the “NHDF IL-13-induced STAT6 phosphorylation (EC50)” value came to 3.8 µg/mL.

The next test concerns the target T1, hIL-13Rα1.ECR (N-terminal FLAG-tagged …). The experiment in a line: BIACORE SPR, hIL-13Rα1.ECR immobilized on CM5 chip, antibody as analyte, bivalent model. The procedure:
BIACORE-Based Studies. Human IL-13Rα1.ECR (40 μg/ml in 20 mM Sodium Acetate, pH 4.2) of Example 1 was immobilized to a sensorchip (CM5, Biosensor, Sweden) using standard NHS/EDC chemistry according to the manufacturer's instructions at a set immobilization value, for example, 1000RU. Ethanolamine (1.0 M) pH 8.0 was used to quench residual active esters post hIL-13Rα1.ECR immobilization.
Analysis of binding of antibody (concentration range of 1.4 nM to 150 nM, two-fold dilutions) to the immobilized hIL-13Rα1. ECR was performed in duplicate. Sensorgrams generated were fitted to a bivalent ligand binding model to simultaneously derive association (kₐ) and dissociation (kd) rates and used to determine binding affinity (KD, Biaevaluation software, BIACORE™, Sweden).
For orientation: In SPR one partner is held on a chip, and binding of the other changes the refractive index at the surface.
The molecule B11 yielded a Kd of 16.5 nM.
B9 displayed a Kd of 4.6 nM.
Molecule B10 yielded a Kd of 2.1 nM.

Another test addresses T3, human IL-13Rα1 on normal human dermal …. Kind of test: cell-based or functional assay. The source holds these as a separate data set.
On to B11, for which the “NHDF cells IL-13 Eotaxin release (IC50) [on average]” value was 3.5 µg/mL.
Same read-out and setting: under B9 stands 1 µg/mL; under B10, 9.7 µg/mL.

The target of the next test is T1, hIL-13Rα1.ECR (N-terminal FLAG-tagged …). The experiment in a line: ELISA on plate-bound hIL-13Rα1.ECR. For orientation: In an ELISA, binding on a coated surface is turned into a signal by an enzyme label.
B11 registered a Kd of 0.36 nM.
Molecule B9 returned a Kd of 0.267 nM.
B10 showed a Kd of 0.087 nM.

For a further test the target is unchanged. Kind of test: KINEXA kinetic exclusion assay, full-length IgG4. In general terms: A kinetic exclusion assay measures how much of one partner remains free in solution.
B12: the Kd was found to be 0.68 nM.
The same measure, in the same setting: under B18 stands 0.038 nM; under B19, 0.051 nM.
